The record followed here is article PMC8102515.

Data set [1] concerns the target T1, human peroxiredoxin 6 (human), P30041.
T1 chain: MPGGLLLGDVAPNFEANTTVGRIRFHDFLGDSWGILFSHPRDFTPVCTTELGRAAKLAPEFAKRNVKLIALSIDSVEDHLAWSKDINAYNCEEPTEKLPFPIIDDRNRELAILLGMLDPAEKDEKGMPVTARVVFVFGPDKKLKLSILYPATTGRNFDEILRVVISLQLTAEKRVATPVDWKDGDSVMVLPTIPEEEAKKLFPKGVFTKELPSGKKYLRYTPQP
Briefly: dynamic light scattering; hPrdx6 1.0 mg/ml, pH 2.0; fixed angle of 90°, laser 689 nm; two peaks. As to conditions: remark: other sources report otherwise.

For data set [2] the target is unchanged. Put plainly: dynamic light scattering; hPrdx6 1.0 mg/ml, pH 5.0; fixed angle of 90°, laser 689 nm; two peaks. As to conditions: remark: other sources report otherwise.
Data set [3] shares this target. Put plainly: dynamic light scattering; hPrdx6 1.0 mg/ml, pH 6.0; fixed angle of 90°, laser 689 nm. As to conditions: remark: other sources report otherwise.
Data set [4] has the same target. Briefly: dynamic light scattering; hPrdx6 1.0 mg/ml, pH 4.0; fixed angle of 90°, laser 689 nm; oligomer told from the hydrodynamic diameter. As to conditions: remark: other sources report otherwise.
The target is the same in data set [5]. Put plainly: dynamic light scattering; hPrdx6 1.0 mg/ml, pH 10.0; fixed angle of 90°, laser 689 nm. As to conditions: remark: other sources report otherwise.
The target is the same in data set [6]. Put plainly: dynamic light scattering; hPrdx6 1.0 mg/ml, pH 7.0; fixed angle of 90°, laser 689 nm; oligomer told from the hydrodynamic diameter. As to conditions: remark: other sources report otherwise.
For data set [7] the target is unchanged. Briefly: dynamic light scattering; hPrdx6 1.0 mg/ml, pH 8.0; fixed angle of 90°, laser 689 nm. As to conditions: remark: other sources report otherwise.
Data set [8] has the same target. Put plainly: dynamic light scattering; hPrdx6 1.0 mg/ml, pH 3.0; fixed angle of 90°, laser 689 nm. As to conditions: remark: other sources report otherwise.
Data set [9] shares this target. Put plainly: dynamic light scattering; hPrdx6 1.0 mg/ml, pH 9.0; fixed angle of 90°, laser 689 nm. As to conditions: remark: other sources report otherwise.
The target of the next data set is P30041. Briefly: dynamic light scattering; hPrdx6 1.0 mg/ml, pH 2.0; fixed angle of 90°, laser 689 nm; two peaks. As to conditions: other: dynamic light scattering.

Values joined by “and” are separate entries in the source; they are usually repeats but may differ in a detail not shown here. Equal entries are not always repeated.

B1: human peroxiredoxin 6, P30041 1-224 (enzyme)
chain: T1 chain
In the case of B1, in [1], the stoichiometry N came to 2 and the volume fraction of the larger peak (Hd 14.17 nm; the text's dimer) came to 30.2%. Also, in data set [2], the stoichiometry N was 2 and 4; the volume fraction of the dimer peak (Hd 6.39 nm) was 29.8%; the volume fraction of the tetramer peak (Hd 13.44 nm) amounted to 70.2%. Further, in data set [3], the stoichiometry N was determined as 2 and the volume fraction of the dimer peak (Hd 8.12 nm) is 100%. Besides, in data set [4], the stoichiometry N turned out to be 4 and the volume fraction of the tetramer peak (Hd 13.75 nm) was 99.6%. In data set [5], the stoichiometry N was found to be 2 and the volume fraction of the dimer peak (Hd 6.3 nm) is 100%. In data set [6], this molecule displayed a stoichiometry N of 2 and a volume fraction of the dimer peak (Hd 7.1 nm) of 100%. In [7], this molecule gave a stoichiometry N of 2 and a volume fraction of the dimer peak (Hd 6.31 nm) of 100%. Further, in data set [8], the stoichiometry N came to 4 and the volume fraction of the tetramer peak (Hd 12.2 nm) was found to be 99.2%. In data set [9], this molecule showed a stoichiometry N of 2 and a volume fraction of the dimer peak (Hd 6.4 nm) of 100%.

B2: human peroxiredoxin 6 (protein)
chain: T1 chain
In the data set with P30041, B2 came in with a volume fraction of the monomer peak (Hd 3.7 nm) of 69.8%.

The stoichiometry N is the number of molecules, sites or subunits per partner or assembly.
